Results published in US20160346368A1.

What was measured:
[1] = target: PVR S72N variant-CD4TM-GFP (human); assay: flow cytometry; HEK-293T cells transfected with PVR S72N variant-CD4TM-GFP; CD226-Fc at 1 ug/ml; PE anti-human Fc
[2] = target: PVR S72N variant-CD4TM-GFP (human); assay: flow cytometry; HEK-293T cells transfected with PVR S72N variant-CD4TM-GFP; CD226-Fc at 10 ug/ml; PE anti-human Fc
PVR-CD4TM-GFP (human) [3] = assay: flow cytometry; HEK-293T cells transfected with PVR-CD4TM-GFP; CD226-Fc at 10 ug/ml; PE anti-human Fc
[4] = target: PVR Q82K variant-CD4TM-GFP (human); assay: flow cytometry; HEK-293T cells transfected with PVR Q82K variant-CD4TM-GFP; CD226-Fc at 1 ug/ml (heading of FIG. 8A); PE anti-human Fc
[5] = target: PVR Q82K+S72N double variant-CD4TM-GFP (human); assay: flow cytometry; HEK-293T cells transfected with PVR Q82K+S72N double variant-CD4TM-GFP; CD226-Fc at 10 ug/ml (heading of FIG. 8A); PE anti-human Fc
[6] = target: PVR Q82K variant-CD4TM-GFP (human); assay: flow cytometry; HEK-293T cells transfected with PVR Q82K variant-CD4TM-GFP; CD226-Fc at 10 ug/ml (heading of FIG. 8A); PE anti-human Fc
[7] = target: PVR Q82K+S72N double variant-CD4TM-GFP (human); assay: flow cytometry; HEK-293T cells transfected with PVR Q82K+S72N double variant-CD4TM-GFP; CD226-Fc at 1 ug/ml (heading of FIG. 8A); PE anti-human Fc
PVR-CD4TM-GFP (human) [8] = assay: flow cytometry; HEK-293T cells transfected with PVR-CD4TM-GFP; CD226-Fc at 1 ug/ml; PE anti-human Fc
PVR-CD4TM-GFP (human) [9] = assay: flow cytometry; HEK-293T cells transfected with PVR-CD4TM-GFP; Fc fusion detected with PE anti-human Fc; PE against FITC (GFP)
[10] = target: PVR S72N variant-CD4TM-GFP (human); assay: flow cytometry; HEK-293T cells transfected with PVR S72N variant-CD4TM-GFP; PE anti-human Fc
[11] = target: PVR Q82K variant-CD4TM-GFP (human); assay: flow cytometry; HEK-293T cells transfected with PVR Q82K variant-CD4TM-GFP; PE anti-human Fc
[12] = target: PVR Q82K+S72N double variant-CD4TM-GFP (human); assay: flow cytometry; HEK-293T cells transfected with PVR Q82K+S72N double variant-CD4TM-GFP; PE anti-human Fc

Chain of CD226-Fc (Q15762 19-254): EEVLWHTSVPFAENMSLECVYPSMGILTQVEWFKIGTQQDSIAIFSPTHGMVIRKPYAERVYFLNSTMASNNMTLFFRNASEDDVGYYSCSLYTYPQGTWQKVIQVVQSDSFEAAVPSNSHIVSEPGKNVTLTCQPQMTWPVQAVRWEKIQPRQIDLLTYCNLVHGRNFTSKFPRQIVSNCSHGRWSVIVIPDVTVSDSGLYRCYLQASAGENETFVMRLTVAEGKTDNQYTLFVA

MFI [1] | MFI [2] | MFI (PVR-CD4TM-GFP (human) [3]) | MFI [4] | MFI [5] | MFI [6] | MFI [7] | MFI (PVR-CD4TM-GFP (human) [8]) | MFI (PVR-CD4TM-GFP (human) [9]) | MFI [10] | MFI [11] | MFI [12] | Substance
16.5 | 104 | 409 | 247 | 93.3 | 521 | 17.9 | 205 |  |  |  |  | CD226-Fc (from UniProt Q15762 19-254) (Fc fusion)
 |  |  |  |  |  |  |  | 389 | 530 | 605 | 795 | TIGIT-Fc (from UniProt Q495A1 22-141) (Fc fusion)
